Measurements as given in paper PMC10899662, “TopBP1 utilises a bipartite GINS binding mode to support genome replication” (Nature Communications, 2024).
Where a chain is given by its changes, count along the chain named. One block for each molecule: values may come before it.

Legend:
[1] = tested on: GINS; experiment: Pulldown of recombinant TopBP1-BRCT0-5 by immobilised GINS, 150 mM NaCl; format: binding; details: for GINS binding? (rec. proteins): summary of recombinant protein interaction tests (yes/no); for GINS interaction: 100 nM TopBP1, 20 mM HEPES pH 8.0, 150 mM NaCl, 0.01% Tween-20, 45 min, 4 °C
Source text: Fig. 1 GINS and TopBP1 interact. a (i) Domain model of human (hs) TopBP1, its conservation with BRCT1/2 and 3/4 domains (grey boxes) of budding yeast Dpb11 (scDpb11). Arrows point to binding domains for interacting proteins. (ii) Overview of TopBP1 wild type (WT) and BRCT deletion (Δ) and point mutants. GINS binding capabilities are labelled in red and green. Numbers, amino acid position; capital letters indicate amino acid substitutions. Amino acid substitutions of point mutants in BRCT4 (B4mut) and 5 (B5mut) are coloured orange. b Elution profiles of size exclusion chromatography (Superdex200) of individual recombinant TopBP1-BRCT0-5 protein (grey) and GINS tetramers (green), or of both upon incubation (blue). c Recombinant GINS immobilised on Flag-beads and control beads (Flag peptide-coupled beads) were used to pull down recombinant TopBP1-0-5-WT or TopBP1-ΔBRCT4/5 (compare a(ii)). SDS gels were silver stained. kDa specifies molecular weight marker bands. The experiment was done more than three times with similar results. Source data are provided as a Source data file. TEXT PRINTED IN THE PICTURE: (a) BRCT0-5-WT: GINS binding? (rec. proteins): yes | (a) ΔBRCT4/5: GINS binding? (rec. proteins): no | (a) ΔBRCT3: GINS binding? (rec. proteins): yes | (a) ΔBRCT0/1/2: GINS binding? (rec. proteins): yes | (a) B5mut: GINS binding? (rec. proteins): yes | (a) B4mut: GINS binding? (rec. proteins): no
Fig. 2 Protein structure of the GINS-TopBP1-BRCT4/5 complex. a Structural model of the GINS-TopBP1-BRCT4/5 complex. Crystal structures of the GINS subunits (PDB:2E9X) (shades of green, yellow), and the central BRCT4/5 domain of TopBP1 (PDB:3UEN) (grey) were docked into the cryo-EM volume shown as transparent volume. b Zoom-in of the BRCT4-Psf1 interface. The residues in stick representation appear crucial for the interface. Mutations to break the interaction are coloured pink (Psf1-I97R) and purple (TopBP1-B4mut; compare Fig. 1a(ii)). c Pulldown of the indicated recombinant TopBP1-BRCT0-5-strep versions (see Fig. 1a(ii)) by Flag-beads-immobilised recombinant GINS or Flag peptide-coupled control beads. Analysis was done by immunoblotting. The experiment was done more than three times with similar results. d Pulldown of the indicated recombinant TopBP1-BRCT0-5-WT-strep using immobilised GINS-WT or GINS carrying a Ile97 to arginine mutation in Psf1.TopBP1-Gcc/B4mut-strep (Figs. 1a(ii) and 3a) was used as a non-GINS binding control. The experiment was done twice with similar results. Source data are provided as a Source data file.
Fig. 3 The conserved core of the TopBP1-GINI domain is required for a stable interaction with GINS. a Domain model and T-COFFEE alignment (one-letter aa code) of TopBP1 proteins from humans (Q92547) Xenopus laevis (Q7ZZY3), Bos taurus (A0A3Q1LWE4) and Rattus norvegicus (A0A8I6GFZ6). Coloured boxes indicate GINI region mutants in sub-regions I (blue), II (green) and III (orange), and in the GINI core helix (red) (details in Supplementary Fig. 7). Amino acid substitutions, names of GINI core region mutations and corresponding GINS binding capabilities are shown. ., : and * indicate low conservation, high conservation and identical amino acids, respectively. b/c Pulldown of recombinant TopBP1-BRCT0-5-strep-WT or the indicated GINI region mutants (a) by bead-immobilised GINS or Flag peptide-coupled control beads. Analysis was done by immunoblotting. The experiments were done more than three times with similar results. Source data are provided as a Source data file. d Fluorescence polarisation measurements including dissociation constants (kD) calculations using recombinant GINS tetramer and fluorescently labelled TopBP1-GINI-core peptides (WT or Gpp (a)). For each peptide n = 3 independent experiments and data are presented as mean values +/−SEM. TEXT PRINTED IN THE PICTURE: (a) TopBP1-Gcc: GINS binding? (rec. proteins): no | (a) TopBP1-Gcore: GINS binding? […]

[2] = tested on: 53BP1; experiment: Pulldown of endogenous 53BP1 from 293T cell lysates with recombinant TopBP1; format: binding; details: pulldown from 293T cell lysates, immunoblotting; 2 h, 4 °C
Experimental: For pulldown assays from soluble lysates of non-transfected 293T cells, 5 µl streptactin Sepharose HP (Cytiva, 28935599) beads were coupled with 10 µg recombinant TopBP1-1-766-strep-WT or mutants in coupling buffer (20 mM HEPES pH 8.0, 150 mM NaCl, 0.1% (v/v) Tween-20, 0.5 mM TCEP, 2% (v/v) glycerol) for 45 min at 4 °C before washing two times with coupling buffer and then once in cell lysis buffer (20 mM HEPES pH 8.0, 150 mM NaCl, 0.1% (v/v) Tween-20, 0.5 mM TCEP, 2% (v/v) glycerol, protease inhibitor cocktail (Roche Complete protease inhibitor cocktail, 05056489001). Control pulldowns were done with Flag-peptide-coupled beads or, when indicated, using GINS-coupled beads and the non-GINS binding TopBP1-Gcc-B4mut. 293T cells were lysed in ten times pellet volume of cell lysis buffer, and centrifuged at 20,000 × g for 15 min at 4 °C. Soluble lysate from cells equivalent to 50% of a 15 cm tissue culture plate was added to the TopBP1-coupled beads and incubated for 2 h at 4 °C rotating. Beads were washed three times with 5 min incubation in lysis buffer and boiled in 50 µl Laemmli buffer before SDS PAGE.
Supplementary Fig. 6: Experiments to control quality of recombinant protein mutants. a: Recombinant TopBP1 point mutants of the GINI and BRCT4 regions bind 53BP1 phospho-dependently. […] Lysates and pulldowns were analysed by immunoblofng. […]

GINS binding? (rec. proteins) [1]: yes
B1: TopBP1-BRCT0-5-WT: recombinant TopBP1 amino acids 1–766, strep-tagged (protein)
chain: MSRNDKEPFFVKFLKSSDNSKCFFKALESIKEFQSEEYLQIITEEEALKIKENDRSLYICDPFSGVVFDHLKKLGCRIVGPQVVIFCMHHQRCVPRAEHPVYNMVMSDVTISCTSLEKEKREEVHKYVQMMGGRVYRDLNVSVTHLIAGEVGSKKYLVAANLKKPILLPSWIKTLWEKSQEKKITRYTDINMEDFKCPIFLGCIICVTGLCGLDRKEVQQLTVKHGGQYMGQLKMNECTHLIVQEPKGQKYECAKRWNVHCVTTQWFFDSIEKGFCQDESIYKTEPRPEAKTMPNSSTPTSQINTIDSRTLSDVSNISNINASCVSESICNSLNSKLEPTLENLENLDVSAFQAPEDLLDGCRIYLCGFSGRKLDKLRRLINSGGGVRFNQLNEDVTHVIVGDYDDELKQFWNKSAHRPHVVGAKWLLECFSKGYMLSEEPYIHANYQPVEIPVSHKPESKAALLKKKNSSFSKKDFAPSEKHEQADEDLLSQYENGSSTVVEAKTSEARPFNDSTHAEPLNDSTHISLQEENQSSVSHCVPDVSTITEEGLFSQKSFLVLGFSNENESNIANIIKENAGKIMSLLSRTVADYAVVPLLGCEVEATVGEVVTNTWLVTCIDYQTLFDPKSNPLFTPVPVMTGMTPLEDCVISFSQCAGAEKESLTFLANLLGASVQEYFVRKSNAKKGMFASTHLILKERGGSKYEAAKKWNLPAVTIAWLLETARTGKRADESHFLIENSTKEERSLETEITNGINLNSDTAEHP
modifications: left off: Strep, C-terminal, kept
notes: recombinant TopBP1 amino acids 1–766, strep-tagged

GINS binding? (rec. proteins) [1]: no
B2: TopBP1-Gpp: TopBP1-BRCT0-5, central leucine-leucine motif mutated to two consecutive prolines (protein)
chain: B1 chain with L490P, L491P
modifications: left off: Strep, C-terminal, kept
notes: TopBP1-BRCT0-5, central leucine-leucine motif mutated to two consecutive prolines
GINS interaction [1]: strongly compromised | binding to (phospho-)53BP1 [2]: no effect on binding to 53BP1

GINS binding? (rec. proteins) [1]: no
B3: TopBP1-B4mut: Val590, Thr606 and Val610 mutated to glutamate, arginine and glutamate (protein)
chain: B1 chain with V590E, T606R, V610E
modifications: left off: Strep, C-terminal, kept
GINS interaction [1]: strongly compromised in its ability to bind GINS | binding to (phospho-)53BP1 [2]: could still interact with phospho-53BP1
